Measured values published in patent publication US20210393741A1.

Biological target: CD91 on macrophages (mouse (C57BL/6 mice)) (UniProt Q91ZX7)
Assay: cell-based or functional assay

Sequence of UniProt Q91ZX7 (Q91ZX7 20-4545): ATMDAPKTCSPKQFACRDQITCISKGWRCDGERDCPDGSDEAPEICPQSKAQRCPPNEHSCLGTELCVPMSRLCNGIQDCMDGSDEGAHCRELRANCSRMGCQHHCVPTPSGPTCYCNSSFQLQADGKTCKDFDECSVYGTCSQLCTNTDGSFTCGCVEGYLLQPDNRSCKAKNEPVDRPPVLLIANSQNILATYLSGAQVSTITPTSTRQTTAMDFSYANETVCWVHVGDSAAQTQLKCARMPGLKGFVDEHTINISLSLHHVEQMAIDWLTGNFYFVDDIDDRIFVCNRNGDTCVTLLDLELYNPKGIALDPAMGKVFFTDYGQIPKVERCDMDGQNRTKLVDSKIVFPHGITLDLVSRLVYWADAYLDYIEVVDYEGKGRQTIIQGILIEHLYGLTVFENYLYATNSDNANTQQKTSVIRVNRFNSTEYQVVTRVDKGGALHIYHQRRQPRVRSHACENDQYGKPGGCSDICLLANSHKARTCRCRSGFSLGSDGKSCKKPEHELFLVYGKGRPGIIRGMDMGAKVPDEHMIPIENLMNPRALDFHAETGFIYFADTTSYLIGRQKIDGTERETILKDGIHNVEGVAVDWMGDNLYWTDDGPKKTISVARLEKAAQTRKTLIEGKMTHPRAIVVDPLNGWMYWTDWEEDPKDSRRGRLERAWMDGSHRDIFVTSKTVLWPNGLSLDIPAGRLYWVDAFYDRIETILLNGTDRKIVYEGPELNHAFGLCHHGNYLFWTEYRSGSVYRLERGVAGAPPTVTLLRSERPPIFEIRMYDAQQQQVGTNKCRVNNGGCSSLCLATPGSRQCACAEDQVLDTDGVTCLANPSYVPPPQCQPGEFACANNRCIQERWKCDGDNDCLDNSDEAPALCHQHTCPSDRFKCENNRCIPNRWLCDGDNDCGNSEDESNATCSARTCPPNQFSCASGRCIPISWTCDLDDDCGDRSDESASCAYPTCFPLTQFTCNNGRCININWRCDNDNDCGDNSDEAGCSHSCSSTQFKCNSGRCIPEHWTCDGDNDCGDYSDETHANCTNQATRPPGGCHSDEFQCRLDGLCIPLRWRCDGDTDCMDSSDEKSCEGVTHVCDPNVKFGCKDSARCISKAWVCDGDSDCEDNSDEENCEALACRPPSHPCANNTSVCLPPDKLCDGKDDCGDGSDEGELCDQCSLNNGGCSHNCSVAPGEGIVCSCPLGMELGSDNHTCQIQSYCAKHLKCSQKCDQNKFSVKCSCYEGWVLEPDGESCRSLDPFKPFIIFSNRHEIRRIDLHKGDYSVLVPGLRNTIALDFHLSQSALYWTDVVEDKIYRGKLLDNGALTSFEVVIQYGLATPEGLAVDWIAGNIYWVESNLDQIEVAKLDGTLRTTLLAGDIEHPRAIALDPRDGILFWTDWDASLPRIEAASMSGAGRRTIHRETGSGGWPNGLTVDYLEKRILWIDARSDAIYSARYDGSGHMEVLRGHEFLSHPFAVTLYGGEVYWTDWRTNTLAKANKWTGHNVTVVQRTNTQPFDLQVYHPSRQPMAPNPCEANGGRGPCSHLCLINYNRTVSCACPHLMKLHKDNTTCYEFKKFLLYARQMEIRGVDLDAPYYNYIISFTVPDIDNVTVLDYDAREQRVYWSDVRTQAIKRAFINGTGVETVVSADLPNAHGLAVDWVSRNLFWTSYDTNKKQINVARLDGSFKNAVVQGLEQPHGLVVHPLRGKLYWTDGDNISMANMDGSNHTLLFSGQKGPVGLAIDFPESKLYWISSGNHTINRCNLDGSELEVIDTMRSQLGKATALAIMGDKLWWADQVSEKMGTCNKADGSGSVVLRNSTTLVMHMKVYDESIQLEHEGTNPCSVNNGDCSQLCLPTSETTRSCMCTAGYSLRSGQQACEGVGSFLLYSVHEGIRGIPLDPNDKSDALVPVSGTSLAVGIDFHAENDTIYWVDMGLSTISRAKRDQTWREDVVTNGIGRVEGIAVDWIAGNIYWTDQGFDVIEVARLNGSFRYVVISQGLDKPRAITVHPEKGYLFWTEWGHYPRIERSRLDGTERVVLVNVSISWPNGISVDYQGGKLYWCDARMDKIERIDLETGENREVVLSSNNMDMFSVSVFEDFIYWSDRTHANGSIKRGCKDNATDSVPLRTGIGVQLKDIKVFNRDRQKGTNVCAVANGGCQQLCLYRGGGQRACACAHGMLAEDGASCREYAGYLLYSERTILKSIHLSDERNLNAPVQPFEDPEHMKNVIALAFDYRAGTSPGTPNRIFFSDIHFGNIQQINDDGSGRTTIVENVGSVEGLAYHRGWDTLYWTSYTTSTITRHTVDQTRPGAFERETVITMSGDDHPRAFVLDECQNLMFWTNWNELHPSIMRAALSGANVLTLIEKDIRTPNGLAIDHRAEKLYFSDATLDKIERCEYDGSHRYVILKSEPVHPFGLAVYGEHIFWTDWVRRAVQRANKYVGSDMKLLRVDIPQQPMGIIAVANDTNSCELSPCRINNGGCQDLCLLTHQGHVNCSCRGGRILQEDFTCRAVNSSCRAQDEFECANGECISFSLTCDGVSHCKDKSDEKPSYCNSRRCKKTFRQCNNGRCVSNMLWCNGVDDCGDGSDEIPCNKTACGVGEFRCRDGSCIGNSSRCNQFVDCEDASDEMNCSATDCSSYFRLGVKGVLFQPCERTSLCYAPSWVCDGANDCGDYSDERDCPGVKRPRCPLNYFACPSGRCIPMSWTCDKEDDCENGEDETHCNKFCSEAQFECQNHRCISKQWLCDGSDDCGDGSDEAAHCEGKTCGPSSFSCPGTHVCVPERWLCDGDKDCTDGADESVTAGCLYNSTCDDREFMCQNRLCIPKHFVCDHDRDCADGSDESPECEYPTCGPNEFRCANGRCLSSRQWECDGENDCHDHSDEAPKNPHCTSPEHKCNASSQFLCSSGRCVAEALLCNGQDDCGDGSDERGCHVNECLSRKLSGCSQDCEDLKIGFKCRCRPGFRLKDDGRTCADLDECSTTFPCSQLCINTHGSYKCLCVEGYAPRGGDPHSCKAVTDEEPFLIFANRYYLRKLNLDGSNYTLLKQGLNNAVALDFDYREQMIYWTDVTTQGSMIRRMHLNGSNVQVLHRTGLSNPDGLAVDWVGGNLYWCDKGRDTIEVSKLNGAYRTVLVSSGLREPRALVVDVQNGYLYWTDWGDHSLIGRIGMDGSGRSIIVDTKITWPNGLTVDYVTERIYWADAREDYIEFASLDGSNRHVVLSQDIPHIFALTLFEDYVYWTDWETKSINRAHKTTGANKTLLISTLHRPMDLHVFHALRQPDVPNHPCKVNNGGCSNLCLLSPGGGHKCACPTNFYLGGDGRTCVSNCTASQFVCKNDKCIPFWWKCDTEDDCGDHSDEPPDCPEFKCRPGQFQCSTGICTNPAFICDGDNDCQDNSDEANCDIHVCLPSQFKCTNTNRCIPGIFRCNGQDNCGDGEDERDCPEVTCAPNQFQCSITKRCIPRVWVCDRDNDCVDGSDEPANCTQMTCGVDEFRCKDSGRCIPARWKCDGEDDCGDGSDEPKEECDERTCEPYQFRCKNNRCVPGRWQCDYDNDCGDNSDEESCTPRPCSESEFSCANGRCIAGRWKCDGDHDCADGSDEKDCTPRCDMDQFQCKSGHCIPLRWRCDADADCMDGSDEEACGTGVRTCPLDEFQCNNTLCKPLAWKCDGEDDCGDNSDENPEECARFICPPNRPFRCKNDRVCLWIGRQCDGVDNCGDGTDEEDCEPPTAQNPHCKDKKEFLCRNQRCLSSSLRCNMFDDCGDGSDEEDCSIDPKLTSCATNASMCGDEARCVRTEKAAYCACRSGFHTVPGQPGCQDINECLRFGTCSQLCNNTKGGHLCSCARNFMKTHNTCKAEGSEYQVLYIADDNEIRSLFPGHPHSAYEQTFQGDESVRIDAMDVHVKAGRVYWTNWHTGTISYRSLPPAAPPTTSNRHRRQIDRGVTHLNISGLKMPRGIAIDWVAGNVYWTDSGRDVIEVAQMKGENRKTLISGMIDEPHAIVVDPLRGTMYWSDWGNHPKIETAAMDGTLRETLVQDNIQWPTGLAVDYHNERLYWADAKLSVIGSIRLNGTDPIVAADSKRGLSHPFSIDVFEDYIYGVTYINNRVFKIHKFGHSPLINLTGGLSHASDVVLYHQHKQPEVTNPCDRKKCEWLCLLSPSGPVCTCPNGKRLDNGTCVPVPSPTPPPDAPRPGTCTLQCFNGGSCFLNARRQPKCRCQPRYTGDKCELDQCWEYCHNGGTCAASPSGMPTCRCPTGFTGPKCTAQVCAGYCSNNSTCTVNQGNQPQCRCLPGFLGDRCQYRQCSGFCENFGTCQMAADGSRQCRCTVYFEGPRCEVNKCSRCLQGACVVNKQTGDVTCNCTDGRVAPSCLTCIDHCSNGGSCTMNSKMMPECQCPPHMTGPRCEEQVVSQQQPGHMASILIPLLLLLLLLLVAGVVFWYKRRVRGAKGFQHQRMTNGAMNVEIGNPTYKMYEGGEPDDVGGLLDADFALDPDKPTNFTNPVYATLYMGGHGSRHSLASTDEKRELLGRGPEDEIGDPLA

IFN alpha MFI (Fold Change), RAW264.7 macrophage (M1) cells pulsed with calreticulin 10 ug/ml for 20 min, FACS: 7.5 fold change | IFN beta MFI (Fold Change), RAW264.7 macrophage (M1) cells pulsed with calreticulin 10 ug/ml for 20 min, FACS: 7 fold change | IL-12 MFI (Fold Change), RAW264.7 macrophage (M1) cells pulsed with calreticulin 10 ug/ml for 20 min, FACS: 3.5 fold change | IL-15 MFI (Fold Change), RAW264.7 macrophage (M1) cells pulsed with calreticulin 10 ug/ml for 20 min, FACS: 3.5 fold change
Substance: calreticulin (CRT), recombinant (ligand)
